{"source": "patent US20260250318A1", "about": "“COMPOSITIONS AND METHODS FOR CROSSING THE BLOOD BRAIN BARRIER” (VOYAGER THERAPEUTICS, INC., priority 2022, published 2026)", "molecules": {"B1": {"name": "TTM-001: AAV9 capsid variant comprising SPHSKA (SEQ ID NO: 941) in loop IV (protein)", "chain 1": "MAADGYLPDWLEDNLSEGIREWWALKPGAPQPKANQQHQDNARGLVLPGYKYLGPGNGLDKGEPVNAADAAALEHDKAYDQQLKAGDNPYLKYNHADAEFQERLKEDTSFGGNLGRAVFQAKKRLLEPLGLVEEAAKTAPGKKRPVEQSPQEPDSSAGIGKSGAQPAKKRLNFGQTGDTESVPDPQPIGEPPAAPSGVGSLTMASGGGAPVADNNEGADGVGSSSGNWHCDSQWLGDRVITTSTRTWALPTYNNHLYKQISNSTSGGSSNDNAYFGYSTPWGYFDFNRFHCHFSPRDWQRLINNNWGFRPKRLNFKLFNIQVKEVTDNNGVKTIANNLTSTVQVFTDSDYQLPYVLGSAHEGCLPPFPADVFMIPQYGYLTLNDGSQAVGRSSFYCLEYFPSQMLRTGNNFQFSYEFENVPFHSSYAHSQSLDRLMNPLIDQYLYYLSKTINGSGSPHSKAQNQQTLKFSVAGPSNMAVQGRNYIPGPSYRQQRVSTTVTQNNNSEFAWPGASSWALNGRNSLMNPGPAMASHKEGEDRFFPLSGSLIFGKQGTGRDNVDADKVMITNEEEIKTTNPVATESYGQVATNHQSAQAQAQTGWVQNQGILPGMVWQDRDVYLQGPIWAKIPHTDGNFHPSPLMGGFGMKHPPPQILIKNTPVPADPPTAFNKDKLNSFITQYSTGQVSVEIEWELQKENSKRWNPEIQYTSNYYKSNNVEFAVNTEGVYSEPRPIGTRYLTRNL", "chain 2": "GSGSPHSKAQNQQT"}, "B2": {"name": "TTM-002: AAV9 capsid variant comprising HDSPHK (SEQ ID NO: 2) in loop IV (protein)", "chain 1": "MAADGYLPDWLEDNLSEGIREWWALKPGAPQPKANQQHQDNARGLVLPGYKYLGPGNGLDKGEPVNAADAAALEHDKAYDQQLKAGDNPYLKYNHADAEFQERLKEDTSFGGNLGRAVFQAKKRLLEPLGLVEEAAKTAPGKKRPVEQSPQEPDSSAGIGKSGAQPAKKRLNFGQTGDTESVPDPQPIGEPPAAPSGVGSLTMASGGGAPVADNNEGADGVGSSSGNWHCDSQWLGDRVITTSTRTWALPTYNNHLYKQISNSTSGGSSNDNAYFGYSTPWGYFDFNRFHCHFSPRDWQRLINNNWGFRPKRLNFKLFNIQVKEVTDNNGVKTIANNLTSTVQVFTDSDYQLPYVLGSAHEGCLPPFPADVFMIPQYGYLTLNDGSQAVGRSSFYCLEYFPSQMLRTGNNFQFSYEFENVPFHSSYAHSQSLDRLMNPLIDQYLYYLSKTINGHDSPHKSGQNQQTLKFSVAGPSNMAVQGRNYIPGPSYRQQRVSTTVTQNNNSEFAWPGASSWALNGRNSLMNPGPAMASHKEGEDRFFPLSGSLIFGKQGTGRDNVDADKVMITNEEEIKTTNPVATESYGQVATNHQSAQAQAQTGWVQNQGILPGMVWQDRDVYLQGPIWAKIPHTDGNFHPSPLMGGFGMKHPPPQILIKNTPVPADPPTAFNKDKLNSFITQYSTGQVSVEIEWELQKENSKRWNPEIQYTSNYYKSNNVEFAVNTEGVYSEPRPIGTRYLTRNL", "chain 2": "GHDSPHKSGQNQQT"}}, "key": {"His-tagged ALPL": {"biological_target": "T1, His-tagged ALPL (Homo sapiens, UniProt P05186)", "T1 sequence (P05186 18-501)": "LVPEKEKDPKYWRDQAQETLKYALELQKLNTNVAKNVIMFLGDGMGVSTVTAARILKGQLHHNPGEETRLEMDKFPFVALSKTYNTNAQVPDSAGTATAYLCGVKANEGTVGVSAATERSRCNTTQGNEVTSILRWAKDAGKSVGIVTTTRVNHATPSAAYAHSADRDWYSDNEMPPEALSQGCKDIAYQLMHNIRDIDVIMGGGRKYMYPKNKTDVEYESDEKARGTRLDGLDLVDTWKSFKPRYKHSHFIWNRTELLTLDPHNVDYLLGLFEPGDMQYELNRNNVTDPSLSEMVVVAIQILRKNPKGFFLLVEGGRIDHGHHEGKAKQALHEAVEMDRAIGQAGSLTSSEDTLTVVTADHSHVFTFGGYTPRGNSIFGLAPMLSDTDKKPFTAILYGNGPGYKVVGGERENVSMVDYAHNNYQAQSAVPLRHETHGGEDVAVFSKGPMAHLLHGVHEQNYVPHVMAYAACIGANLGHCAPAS", "assay": "SPR (Biacore 8K) binding of capsids to ALPL", "details": "for binding to ALPL by SPR: AAV 0.0625 to 1 nM over ALPL, or ALPL 15.625 to 250 nM over capsid", "experimental": "Direct binding and specific interaction of the TTM-002 capsid variant and the AAV9 capsid control to ALPL was measured by Surface Plasmon Resonance (SPR) on a Biacore 8K instrument. His-tagged ALPL was first captured on a CM5 sensor chip pre-immobilized with anti-His antibody by passing 5 μg/ml of ALPL for 240 seconds (FIGS. 2A-2B). AAV9 or TTM-002 and buffer were then passed over ALPL to monitor rates of association and dissociation, respectively. […] The surface was regenerated using two pulses of 10 mM glycine pH 1.7 for 30 seconds. A flow rate of 30 μl/min was used for all steps and the running buffer used was PBS-P+. In a second experiment, the AAV9 control or TTM-002 capsid variant were immobilized on the CM5 sensor chip (FIGS. 2C-2D). His-tagged ALPL and buffer were then passed over the AAV9 control or TTM-002 capsid variant to monitor rates of association and dissociation. The concentration of ALPL used was from 15.625 to 250 nM (e.g., 15.625 nM, […], 62.5 nM, 125 nM, and 250 nM; FIGS. 2C-2D).\nFor this experiment, the density of TTM-002 on the chip was approximately 6300RU.\nAdditional experiments were performed varying the density of the TTM-002 capsid variant on the chip. His-tagged ALPL and buffer were then passed over the AAV9 control or TTM-002 capsid variant to monitor rates of association and dissociation."}, "[1]": {"biological_target": "T2, isoform 3 (alkaline phosphatase, intestinal (ALPLI)) (Homo sapiens, UniProt P09923)", "T2 construct": "expressed in transfected cells; host or cells: HEK 293T", "T2 sequence (P09923 20-503)": "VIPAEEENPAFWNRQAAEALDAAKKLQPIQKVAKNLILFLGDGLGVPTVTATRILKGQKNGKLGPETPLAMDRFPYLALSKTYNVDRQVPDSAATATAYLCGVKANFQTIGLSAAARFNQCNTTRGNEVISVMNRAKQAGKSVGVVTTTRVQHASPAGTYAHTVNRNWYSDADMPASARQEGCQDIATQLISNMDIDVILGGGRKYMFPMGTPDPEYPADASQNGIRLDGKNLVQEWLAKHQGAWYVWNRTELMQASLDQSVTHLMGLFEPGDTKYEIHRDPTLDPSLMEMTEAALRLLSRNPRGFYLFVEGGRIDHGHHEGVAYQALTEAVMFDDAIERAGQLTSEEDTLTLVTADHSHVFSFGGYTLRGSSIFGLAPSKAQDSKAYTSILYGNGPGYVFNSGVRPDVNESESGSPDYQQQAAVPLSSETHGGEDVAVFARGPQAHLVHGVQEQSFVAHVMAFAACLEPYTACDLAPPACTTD", "assay": "Transduction assay in HEK 293T cells expressing isoform 3", "format": "cell-based", "details": "for Luciferase Activity (RLU): Table 30, Isoform 3 transfected cells; for increase in transduction in cells expressing isoform 3: luciferase activity (RLU)", "excerpt": "(§1) Three isoforms of ALPL exist, isoform 1 (Alkaline phosphatase, placental-like 2 (ALPPL2), NM_031313, which is incorporated by reference herein), isoform 2 (alkaline phosphatase, placental (ALPP), NM_001632, which is incorporated by reference herein), and isoform 3 (alkaline phosphatase, intestinal (ALPLI), NM_001631, which is incorporated by reference herein), that can also be expressed on cell surfaces via a GPI-anchor. Isoform 1 is 56.25% identical and 72.54% similar (gaps: 4.17%) to ALPL, isoform 2 is 54.96% identical and 71.37% similar (gaps: 2.29%) to ALPL, and isoform 3 is 55.98% identical and 72.11% similar (gaps: 3.04%) to ALPL. The transduction assay described above was repeated with the three isoforms. HEK 293T cells were transfected via calcium phosphate transfection with a plasmid expressing ALPL, isoform 1 of ALPL, isoform 2 of ALPL, isoform 3 of ALPL, an AAVR positive control, or a pCMV6 negative control. […] At 24-hours post-transduction, luciferase activity (RLU) was measured to quantify AAV cellular transduction."}, "brain [2]": {"test_system": "brain", "assay": "Second cross-species screen, synthetic library passage 3 in BALB/c mice", "format": "in vivo", "details": "for Fold enrichment over AAV9 in BALB/c: third passage (P3)", "experimental": "There were approximately 500 variants in this synthetic library. This synthetic library was then injected back into both strains of mice (C57Bl/6 and BALB/c; passage 3). RNA was recovered from the mouse brains, RT-PCR amplification was performed, and fold-enrichment relative to wild-type AAV9 was calculated by NGS analysis, which is provided in Table 11."}, "brain [3]": {"test_system": "brain", "assay": "NGS fold enrichment of synthetic library (passage 3) in BALB/c mice, first cross-species screen", "format": "in vivo", "details": "synthetic library passage 3, intravenous, RNA NGS, brain of BALB/c mice, relative to wild-type AAV9", "in_short": "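Synthetic capsid library (passage 3) was given intravenously […] to NHPs aged 2-4 years and to BALB/c and C57Bl/6 mice (n=3 each, 6-8 weeks). After about 28 days in vivo, tissue RNA was RT-PCR amplified and NGS-sequenced; values are fold enrichment per variant relative to wild-type AAV9.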"}, "[4]": {"biological_target": "T3, isoform 2 (alkaline phosphatase, placental (ALPP)) (Homo sapiens, UniProt P05187)", "T3 construct": "expressed in transfected cells; host or cells: HEK 293T", "T3 sequence (P05187 23-506)": "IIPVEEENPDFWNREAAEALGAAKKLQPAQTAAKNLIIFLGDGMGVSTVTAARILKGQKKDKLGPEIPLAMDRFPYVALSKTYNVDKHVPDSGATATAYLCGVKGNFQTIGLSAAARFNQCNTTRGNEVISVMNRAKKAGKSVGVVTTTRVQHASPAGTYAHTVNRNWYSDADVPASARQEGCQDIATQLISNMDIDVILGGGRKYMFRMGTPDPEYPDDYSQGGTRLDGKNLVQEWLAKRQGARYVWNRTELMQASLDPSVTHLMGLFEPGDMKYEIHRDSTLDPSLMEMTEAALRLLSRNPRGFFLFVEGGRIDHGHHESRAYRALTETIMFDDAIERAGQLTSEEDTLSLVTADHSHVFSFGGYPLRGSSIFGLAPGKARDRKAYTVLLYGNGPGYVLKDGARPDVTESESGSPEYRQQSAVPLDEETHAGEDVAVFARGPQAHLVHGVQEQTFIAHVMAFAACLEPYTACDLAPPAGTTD", "assay": "Transduction assay in HEK 293T cells expressing isoform 2", "format": "cell-based", "details": "for Luciferase Activity (RLU): Table 30, Isoform 2 transfected cells; for increase in transduction in cells expressing isoform 2: luciferase activity (RLU)", "excerpt": "as §1"}, "[5]": {"details": "P3, average of BALB/c and C57Bl/6"}, "[6]": {"details": "TTM-002 on chip approximately 6300RU"}}}
{"molecule": "AAV9: wild-type AAV9 control capsid [reference compound]", "values": [{"measurement": "binding to ALPL by SPR", "setting": "His-tagged ALPL", "value": "no binding"}]}
{"molecule": "B1", "values": [{"measurement": "Luciferase Activity (RLU)", "setting": "[1]", "value": "3,300 RLU"}, {"measurement": "increase in transduction in cells expressing isoform 3", "setting": "[1]", "value": "did not occur"}, {"measurement": "Average fold enrichment over AAV9", "setting": "brain [2]; [5]", "value": 63.1, "unit": "fold"}, {"measurement": "Average fold enrichment over AAV9", "setting": "brain [2]; P3, average of BALB/c and C57Bl/6, listed as GSGSPHSKAQNQQT", "value": 63.083, "unit": "fold"}, {"measurement": "Fold enrichment over AAV9 in BALB/c", "setting": "brain [2]", "value": 60.312, "unit": "fold"}, {"measurement": "Fold enrichment over AAV9 in the brain of Mice (BALB/c)", "setting": "brain [3]", "value": 41.304, "unit": "fold"}, {"measurement": "Luciferase Activity (RLU)", "setting": "[4]", "value": "7,456 RLU"}, {"measurement": "increase in transduction in cells expressing isoform 2", "setting": "[4]", "value": "did not occur"}]}
{"molecule": "B2", "values": [{"measurement": "Luciferase Activity (RLU)", "setting": "[1]", "value": "2,074 RLU"}, {"measurement": "increase in transduction in cells expressing isoform 3", "setting": "[1]", "value": "did not occur"}, {"measurement": "Average fold enrichment over AAV9", "setting": "brain [2]; [5]", "value": 66.8, "unit": "fold"}, {"measurement": "Average fold enrichment over AAV9", "setting": "brain [2]; P3, average of BALB/c and C57Bl/6, listed as GHDSPHKSGQNQQT", "value": 66.792, "unit": "fold"}, {"measurement": "Fold enrichment over AAV9 in BALB/c", "setting": "brain [2]", "value": 82.460, "unit": "fold"}, {"measurement": "Fold enrichment over AAV9 in the brain of Mice (BALB/c)", "setting": "brain [3]", "value": 49.760, "unit": "fold"}, {"measurement": "Luciferase Activity (RLU)", "setting": "[4]", "value": "3,465 RLU"}, {"measurement": "increase in transduction in cells expressing isoform 2", "setting": "[4]", "value": "did not occur"}, {"measurement": "binding to ALPL by SPR", "setting": "His-tagged ALPL", "value": "capable of directly and specifically binding to ALPL in a dose dependent manner"}, {"measurement": "koff", "setting": "His-tagged ALPL; Density of TTM-002 127 RU on chip", "value": 0.0051, "unit": "s⁻¹"}, {"measurement": "koff", "setting": "His-tagged ALPL; Density of TTM-002 2400 RU on chip", "value": 0.00185, "unit": "s⁻¹"}, {"measurement": "koff", "setting": "His-tagged ALPL; Density of TTM-002 6300 RU on chip", "value": 0.00127, "unit": "s⁻¹"}, {"measurement": "koff", "setting": "His-tagged ALPL; Density of TTM-002 6680 RU on chip", "value": 0.00116, "unit": "s⁻¹"}, {"measurement": "koff", "setting": "His-tagged ALPL; [6]", "value": 0.00127, "unit": "s⁻¹"}, {"measurement": "kon", "setting": "His-tagged ALPL; [6]", "value": 32000, "unit": "M⁻¹ s⁻¹"}]}
